In publication PMC9871336, “Positive charge in the K-loop of the kinesin-3 motor KIF1A regulates superprocessivity by enhancing microtubule affinity in the one-head–bound state” (The Journal of Biological Chemistry, 2022):
Blank lines part the entries; values can stand above or below the molecule they belong to.

Assays:
[1] = tested on: T1, 1A-K1L12; assay: stopped-flow ATP-triggered half-site release of mant-ADP; assay type: biochemical, Rattus norvegicus; conditions: taxol-stabilized microtubules; 1HB complex with mant-ADP; Mg-ATP varied; half-maximal ATP for mant-ADP release, not steady-state ATPase
T1 construct: gene Kif1a; fused to D. melanogaster KHC neck-coil for dimerization; C-terminal His6; E. coli

[2] = substrate: Nc1ncnc2c1ncn2[C@@H]1O[C@H](COP(=O)(O)OP(=O)(O)OP(=O)(O)O)[C@@H](O)[C@H]1O; assay: as above; assay type: biochemical, Rattus norvegicus; conditions: taxol-stabilized microtubules; 1HB complex with mant-ADP; Mg-ATP varied; half-maximal ATP for mant-ADP release, not steady-state ATPase

Km [1]: 64 ± 28 µM
Molecule: Nc1ncnc2c1ncn2[C@@H]1O[C@H](COP(=O)(O)OP(=O)(O)OP(=O)(O)O)[C@@H](O)[C@H]1O [ATP]

B1: 1A368 (Rattus norvegicus) (protein)
chain: MAGASVKVAVRVRPFNSREMSRDSKCIIQMSGSTTTIVNPKQPKETPKSFSFDYSYWSHTSPEDINYASQKQVYRDIGEEMLQHAFEGYNVCIFAYGQTGAGKSYTMMGKQEKDQQGIIPQLCEDLFSRINDTTNDNMSYSVEVSYMEIYCERVRDLLNPKNKGNLRVREHPLLGPYVEDLSKLAVTSYNDIQDLMDSGNKARTVAATNMNETSSRSHAVFNIIFTQKRHDAETNITTEKVSKISLVDLAGSERADSTGAKGTRLKEGANINKSLTTLGKVISALAEMDSGPNKNKKKKKTDFIPYRDSVLTWLLRENLGGNSRTAMVAALSPADINYDETLSTLRYADRAKQIRCNAIINEDPNNKL
notes: KIF1A 1-368 (motor, neck linker) fused to D. melanogaster KHC neck-coil 345-406 for dimerization (biochemical version; 345-560 plus GFP for single-molecule); C-terminal His6; E. coli; dimer
Km [2]: 119 ± 20 µM

B2: 1A393 (Rattus norvegicus) (protein)
chain: MAGASVKVAVRVRPFNSREMSRDSKCIIQMSGSTTTIVNPKQPKETPKSFSFDYSYWSHTSPEDINYASQKQVYRDIGEEMLQHAFEGYNVCIFAYGQTGAGKSYTMMGKQEKDQQGIIPQLCEDLFSRINDTTNDNMSYSVEVSYMEIYCERVRDLLNPKNKGNLRVREHPLLGPYVEDLSKLAVTSYNDIQDLMDSGNKARTVAATNMNETSSRSHAVFNIIFTQKRHDAETNITTEKVSKISLVDLAGSERADSTGAKGTRLKEGANINKSLTTLGKVISALAEMDSGPNKNKKKKKTDFIPYRDSVLTWLLRENLGGNSRTAMVAALSPADINYDETLSTLRYADRAKQIRCNAIINEDPNNKLIRELKDEVTRLRDLLYAQGLGDITD
notes: KIF1A 1-393 (motor, neck linker, neck-coil) fused to D. melanogaster KHC neck-coil 345-406 for dimerization (biochemical version; 345-560 plus GFP for single-molecule); C-terminal His6; E. coli; dimer
Km [2]: 96 ± 53 µM
